{"source": "the DeepSol protein solubility set", "data": [{"assay": "soluble on expression in E. coli; label from the status in PepcDB or PDB records", "values": [{"sequence": "MSLTNIEEFMPEKLAKAIANPLFPELDSLLRSGRHVASEDLDNHALLCEFEHELGLFYQRYNAELVKAPEGFFYLRPRSTSFIARSVLAEIDMLVGKVLCFLYLSPERLAHEGIFTNQELFDELLVLADEQKLMKLVTNRASGSDLDKEKLFDKVRTSLRRLKRLGMIIPVGEQGKFRISEAVFRFGADVRTSDDMKEAQLRLIRDGEAVVVHQEEASQSSLDLDADSNEKPAEEQHELELEGDLLEHHHHHH", "soluble on expression in E. coli": "soluble"}, {"sequence": "MGSDKIHHHHHHMSVNPLFKVILHPFIKESIASLKAMTNLTGVAGDPFMDKVEDFRFKGYAVCSDVTGSLDGVIMMHHYPETAIAIGNSVCQNMFNETYAFDAINDDLRNALAEWGNTIVGRSTDLHSRHKLEYGFSSPYFVEDLTEMDKYLVGVKQVITVPIMVEGIGRYYFNLLIRDVVEQVANVDIDAQSIDVENTHTTPLPLTSTVLVVDDSAMIRKAISRFLNNLGYHNVIEADDGIGAIEAVKAGKVDFIFMDVVMTRLNGDAALAELRNMGSQVPVVMLSSVTDNILVKQCQKHGISGFIFKPINANNGAETIAKYLKIAAAVAI", "soluble on expression in E. coli": "not soluble"}, {"sequence": "MEAPLYPDLPPDLCAPRGGQPAFWVGPRHLAGDDGRLYDVVADALAGLGWTSLTIVRGRHEPDEEPEDRQVLRSTVLHISPDALRWAQWCAADEPFHLGGLPIAWQISVRAEVSSPLAQWSAYFTRDVPGEAVVDFLVALDASNQPAVSLAGAELVLDAVAAHGWFRDIDQPEAVATDPAFTSHISLGEVPPLIQDGDLRVLSAEDDETGPDGWQAWAEPVLGAPLLWVASFAASVPHDLVAAFAASLSSTAPVLRRVLPEATHERLLRAPAILEHHHHHH", "soluble on expression in E. coli": "not soluble"}, {"sequence": "MQAIQNTQEIRRQADLTKAQWWLQQLCETDRMIVGRKRRDVQKLIHRLLSEPKGTSVPKSSPVNRLFPHPLSFELDPKWPAMDSFYNRISAAMRTIAPKKTASQQVVISCKQLKPAKLDMKTLRQVMEHELAELGDEKLQRMVCSFCYRAQPTHRLYTIEDVIKCQECWRGPFPSRTIFDALITDVAEKWAEKVAKRVECLYGNWDEKLTPMVRMLQNNVLLSEDIAALLRTCTDPHEFKEACEVIIITTIVFYLEYVDFRRSCEALMAIKPTVTYGQLFEIFQIYFPNRAKGIKTGDFL", "soluble on expression in E. coli": "not soluble"}, {"sequence": "MGSDKIHHHHHHMTWNLAGSYSETCSCELMCPCNMSFDHGATYDFCRVTLAFNVHEGSVEGTDIAGRKVVLIADTPKVMTDGNWRVGVFVDDGASEEQFDKLVQVFGGQLGGPMAGLAPLIGEMLGVQRAAIDIEDDGLLHSVRVGDEIDFQIQDIVPFGVETGEPVRFAGMFHPVGSDLVMAEAKRTRINAFGITYEGKTGLSKSSFTWAA", "soluble on expression in E. coli": "not soluble"}, {"sequence": "MGSDKIHHHHHHFLDELPDNRTELNSEQKIAKMLVSAYPEGSANELFELYSDNTDDNSARYSYYKLSEEECYNWKDTQEEYQDTPTNLWETHYIAIASANMALEEIEKRGNPESLMPQRGEALVCRAYNHFVLANIFCNAYNTHASQELGIPYMTKVETTVQPQYGRGTLQETYEKIEKDLLDGMALISDDSYSVPKYHFTRKAAYAFAARFYLYYMKPDFSNCDEVIKYADRVLGSDPAAELRDWEALGKLSANDNVQPDAYIASTSKANLLIGSTVSNWGIILSNYMTGKRYLHNKLIASYETSRSSGLWGIPDRMYMQPFTTSGYECSMLRKGGYYAGDYLYYMPVIFSTDETLLCRAEAYTLKKNYPMAAADLTTWEKAYTSNKQTLTPGMINEYYDKMDYYNPTQNPTPKKKLQPDFTIESGIQENFIHCILHMRRIATLHEGLRWPDIKRYGIVIYRRSIANNNIVVTDEMPVNDARRAMQIPKSVVLAGMQPNPRTEN", "soluble on expression in E. coli": "not soluble"}, {"sequence": "GPMSAQDVENAVEAALDPSVGPIIKQQATDFIGSLRSSSTGWKICHEIFSEKTKYKPSTRLICLQTLSEKVREWNNESNLLELQMIRDSVWSYIKELSFLDEPAYISNAVQHLLTLLFLQLYPSNWNDFFASLQGVIAASSQSEFSNFYLKVLLSIGDEIADSLVLKTDVQIQKDNLVKDAIRANDMSDIVSFVYEMMLAYSNAKNYGTVGLCLQVYAQWVSWININLIVNEPCMNLLYSFLQIEELRCAACETMTEIVNKKMKPLEKLNLLNILNLNLFFSKSQEQSTDPNFDEHVAKLINAQGVELVAIKSDPSELSPELKENCSFQLYNLFPYLIRYLSDDYDETSTAVFPFLSDLLVSLRKESSSKELSASLKEFLKSLLEAIIKKMKYDESQEWDDDPDSEEEAEFQEMRKKLKIFQDTINSIDSSLFSSYMYSAITSSLSTAATLSPENSWQLIEFALYETYIFGEGLRGPDAFFNEVDKSPTVLSQILALVTTSQVCRHPHPLVQLLYMEILVRYASFFDYESAAIPALIEYFVGPRGIHNTNERVRPRAWYLFYRFVKSIKKQVVNYTESSLAMLGDLLNISVSPVTDMDAPVPTLNSSIRNSDFNSQLYLFETVGVLISSGNLTPEEQALYCDSLINALIGKANAALSSDLSALENIISVYCSLMAIGNFAKGFPARGSEEVAWLASFNKASDEIFLILDRMGFNEDIRGAVRFTSGRIINVVGPDMLPKVPQLISILLNSIDMNELVDVLSFISQLIHIYKDNMMEITNRMLPTLLMRIFSSLSAAPQGTDDAVKQNDLRKSYISFILQLLNKGFGSILFTEENQVYFDPLINSILHFANLVGEPATQKSSIALVSKMVSLWGGKDGIAGFENFTLSLTPLCFEMPVNPNFNTRDGQSLVVLGELAGLQKIILEKLGDIYKSYLVTVYFPTVNFPDVMASEYLQALSNLDSRSFKQFFQKFIQALKSGNV", "soluble on expression in E. coli": "soluble"}, {"sequence": "MVPTTPFTIENTPVGRGNSGARSHKEPSAKRKKPTSTPTVRCGTVPQEPSTSAATVTQKPAGSTMATANITETRRIDISSCSDRPLIPCTASGVPLTTFSNKSLDSILNQDSEIVGGISQKDLNELRNRGPNMTVKQLLAKNFKNYKVRQSLTSELATEFVNRTLSENDVPMGALIMPPMEDVQESIVKESKTYNYAAASGGSLPFSNPHSEGILIRSPAIKGPHTLRDVLDSLGSVGTPAANQTLKDVLGSFNSQQPIDPTPSKTLKDVLGSLDLDNDYDLKLKMEGLDHDLKVESPTDAELGLDEFANQILSSKYKGTSLDTDHTAYPGNHLPWPVLWKNPVPKYIQGEIYCYVDGCTYSPMSEIIKSGKFMVPLDHPVEFIFKDRPILVTMEELLTANGINMSKAQHYRMLQGLLQKSGVHIRADYAERLHEFQALMDGLEIEDKPRPALKLSSDKLPLMCIYPDIYMNALGRRIHGAVIVDSSGVQETIGTRTLITRHQIAEFLLENPESPDSPDITTAPSKNSTIGDMMRPKSKIRRTHYVDLNKMVWRHFKDCQAAGIQINGKQLKDQAMRYAKDMGLESFRGSEGWLDAFKRRHRIDLKSMTGYPVCYENDMYEEVDKECRELDMESHMLHQQPPSFFPQSAPDEFAASFFSSLSGFPQQMVVQEPPTTSSSNHLQNMINSMMTPPVVDSRMMPSTSSAGASGASASSQEPDGGGDTIFNVMRSCQIKVADKEVSHALDTLRTYILEHDPAAMSLLVPLQERLATTSSGAIGRDMPSTSSSS", "soluble on expression in E. coli": "soluble"}, {"sequence": "MSDTDYYRELEASEQRLSDSRAANRESIRTVEDKISDEREKHVARMSEKEKKHHENMLRLTNSSAAERKSAEEAHRKSVEQLKEKHKNETEKLETQIKEIKEKGEEDVRKVELQRANLEKQRTEALDIHLETMKELNEKKFEEIRQQRKEQNILNVEEMKALSTRNAIEHETQMGLIDDTQNMILSRESRQSSLTLIGHMMKSIESGDAISSLLQEMKTYCENRDQYSPTDIKIMKNISADIGKHRAKCDFQRQQLISKINLESNADPQVVDGCFEMSMKMKCCVESSDLRSVCTTLPLLAAQQEHARISGIINKIGSLTDNLDAINVEIKTKSIQWSRRITNALTNTTGN", "soluble on expression in E. coli": "not soluble"}, {"sequence": "MADSAQDLAFTAENFESLLNEQLGESGGLEGSVLTGTVIGVSGDFAVVDVGLKSEGRVPLKEFSRGGDDAEIKIGDTVDVFVERYEDKDGLIVLSRDKARREEAWNELEKAFNDNQRVRGLIHSRVKGGFTVDLSGAIAFLPGSQVDIRPVRDIGPLLGQPQVFQILKMDRARGNIVVSRRAVLEETRAEERSKLMETLREGEILEGVVKNITDYGAFVDLGGVDGLLHVTDISWKRINHPTEALSIGQTVKVQVIRFNAETQRISLGMKQLEADPWEGVAAKYPVGTKFVGRVTNITDYGAFVELEPGVEGLVHVSEMSWTKKNVHPGKIVSTSQEVEVMILDVDPDKRRISLGLKQTMANPWSEFLEGHPIGTEVEGEIKNITEFGLFIGLTGDIDGMIHLSDLDWNRSGDEAVKDYKKGDVVQAKVLDVDVEKERISLGVKQLGEDPYREATADLRKNQIVTCVITMVQENGIEVDVNGAIGFIRKSDLARERADQRPERFAVGEKVDAKVINMDKSNRRMTLSIKAREMDEEKQAMAEYGSADSGASLGDILGAALKQAQEKARTGDDELEHHHHHH", "soluble on expression in E. coli": "not soluble"}, {"sequence": "MGSDKIHHHHHHMKRARAATNLPETRQPRSAHFAQAGQRWSDDVDASTTGVSKHDMCFAVASRESVRPYVLPRNKNDMADAEAICEAVTRPNMRFVAVKTAAQQSVLMLHRCRALLVRQRTMLANAIRAHLAEFGIVMPQGIRTLLTALIAPKDEVNDLPHLVRVALAPMAANLIELGQRIKGLEIEIAREHRGNETSRRLETIPGFGVMTSTAMAATVADPTAFKSGREFAAWLGLTPRESSSGGKQRLGGITKMGDGYLRTLLVVGATAVIRFAREEGSAKTAWIRKLMEKKPAKVVAVALANKMARIAWPLMTRGEVYRVIPA", "soluble on expression in E. coli": "not soluble"}, {"sequence": "MSKSEETLSSIMEASYRLFARHGITKTTYSMIAEEVGIAKPSIYYYFKSKDALIECIFTELCAAMQFSSFFHTEEFTKENFIEKCIEIGFKIIDEQQNDPYFNRVLQEYLLLSSRNDMYKDRLLTVQTEYLQGFESLLTKANELQLIENKNLVSKAHMLALVLDNVGNFMMLHVDIDYRQIWMEAVNIIFERRD", "soluble on expression in E. coli": "not soluble"}, {"sequence": "MKDLGAEHLAGHEGVQLLGLLNVYLEQEERFQPREKGLSLIEATPENDNTLCPGLRNAKVEDLRSLANFFGSCTETFVLAVNILDRFLALMKVKPKHLSCIGVCSFLLAARIVEEDCNIPSTHDVIRISQCKCTASDIKRMEKIISEKLHYELEATTALNFLHLYHTIILCHTSERKEILSLDKLEAQLKACNCRLIFSKAKPSVLALCLLNLEVETLKSVELLEILLLVKKHSKINDTEFFYWRELVSKCLAEYSSPECCKPDLKKLVWIVSRRTAQNLHNSYYSVPELPTIPEGGCFDESESEDSCEDMSCGEESLSSSPPSDQECTFFFNFKVAQTLCFPSLEHHHHHH", "soluble on expression in E. coli": "not soluble"}, {"sequence": "MGHHHHHHSHMTDRQDIQKSMAAFKNLSAQCQEVRKRKELELQILTEAIRNWEGDDIKTLGNVTYMSQVLIQCAGSEEKNERYLLLFPNVLLMLSASPRMSGFIYQGKLPTTGMTITKLEDSENHRNAFEISGSMIERILVSCNNQQDLQEWVEHLQKQTKVTSVG", "soluble on expression in E. coli": "soluble"}, {"sequence": "MSLEEINKIEVIEKSIEENTEKYEIKVKYPSIQGGEKEVTDKINKTIEDYTLNWINDIKLLGEEYSKEYEKAGKEMPKMEAYSLFEAFNTDEVISLPVSYYQYTGGAHGLTTKVSYNYNLKTGKELKLKDLFKEGFDYKSIIDKKVRGDIEKEKELYFDNGALFKGVNENQAYYLNRDGIIVYFQQYEIAPYSSGIREFKIPYGELKEGLIYKLGNEGHHHHHH", "soluble on expression in E. coli": "soluble"}, {"sequence": "MADLSSRVNELHDLLNQYSYEYYVEDNPSVPDSEYDKLLHELIKIEEEHPEYKTVDSPTVRVGGEAQASFNKVNHDTPMLSLGNAFNEDDLRKFDQRIREQIGNVEYMCELKIDGLAVSLKYVDGYFVQGLTRGDGTTGEDITENLKTIHAIPLKMKEPLNVEVRGEAYMPRRSFLRLNEEKEKNDEQLFANPRNAAAGSLRQLDSKLTAKRKLSVFIYSVNDFTDFNARSQSEALDELDKLGFTTNKNRARVNNIDGVLEYIEKWTSQRESLPYDIDGIVIKVNDLDQQDEMGFTQKSPRWAIAYKFPAEEHHHHHH", "soluble on expression in E. coli": "soluble"}, {"sequence": "MSFRIEEKIVLTASDMARLQADLQARGMVPLYPARLIRSVYFDTSGLQMFSDSEEGVLPRKKVRLRRYPEQADAGAVLETKISSVEGRFKTALPVAPETERRLLRQGHFDRDYGTLQAMVAVSYRRAYYSLDGLRITFDRDIAYARPDGQTARREAWTVCELKAPAEAPLDALHHILPVPRRRFSKFCNGVSAVIARALEHHHHHH", "soluble on expression in E. coli": "not soluble"}]}]}
